Measured values from patent publication US20220306733A1 (ITEOS BELGUIM, published 2022).
Where a chain is given by its changes, count along the chain named.

T1: human TIGIT on cells (Jurkat-hTIGIT, human primary T cells) (human, UniProt Q495A1 22-244)
T1 construct: whole, on cells; The cell type is named in each row's assay; also called membrane expressed human TIGIT
T1 sequence (looked up): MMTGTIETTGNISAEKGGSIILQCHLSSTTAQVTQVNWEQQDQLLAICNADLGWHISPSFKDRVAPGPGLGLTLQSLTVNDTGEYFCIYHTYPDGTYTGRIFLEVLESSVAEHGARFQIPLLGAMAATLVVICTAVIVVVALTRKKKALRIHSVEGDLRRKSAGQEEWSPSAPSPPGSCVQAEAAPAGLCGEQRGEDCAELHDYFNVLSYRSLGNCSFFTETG

T2: mouse TIGIT on cells (Jurkat-mTIGIT) (mouse, UniProt P86176 29-249)
T2 construct: whole, on cells
T2 sequence (looked up): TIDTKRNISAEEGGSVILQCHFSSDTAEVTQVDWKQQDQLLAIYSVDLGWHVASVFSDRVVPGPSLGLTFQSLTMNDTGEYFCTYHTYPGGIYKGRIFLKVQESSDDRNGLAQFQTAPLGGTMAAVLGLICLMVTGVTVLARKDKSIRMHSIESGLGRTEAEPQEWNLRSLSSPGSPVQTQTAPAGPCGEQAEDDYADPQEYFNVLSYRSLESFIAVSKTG

B1: anti-TIGIT antibody clone 29478 (antibody, V domains shown)
VH: EVQLVESGGGVVQPGRSLRLSCAASGFTFESYGMVWVRQAPGKGLEWVASILYDGSNRYYADSVKGRFTVSRDNSKNTLYLQMNSLRAEDTAVYYCARVSYYYDSVELRWAEYFQHWGQGTLVTVSS
VL: EIVLTQSPATLSLSPGERATLSCRASQSVSSYLAWYQQKPGQAPRLLIYDASKRATGIPARFSGSGSGTDFTLTISSLEPEDFAVYYCQQVHNFPLTFGGGTKVEIK
notes: human IgG; Fab for 'Fab KD' columns
B2: anti-TIGIT antibody clone 32919 (antibody, V domains shown)
VH: QLQLQESGPGLVKPSETLSLTCTVSGGSISSGSYYLAWIRQPPGKGLEWIGSIFRSGSTYYNPSLESRVTISVDTSKNQFSLKLSSVTAADTAVYYCAIEGANFKDFGYVAFDIWGQGTTVTVSS
VL: B1 VL with K53N, V91E, H92N, N93P, F94R, L96R
notes: L1/L2/L3 optimised from 31288; human IgG
B3: anti-TIGIT antibody clone 32931 (antibody, V domains shown)
VH: B2 VH
VL: EIVMTQSPATLSVSPGERATLSCRASKSVSSNLAWYQQKPGQAPRLLIYFASTRATGIPARFSGSGSGTEFTLTISSLQSEDFAVYYCQQTSPWPRTFGGGTKVEIK
notes: as for B2
B4: anti-TIGIT antibody clone 29520 (antibody, V domains shown)
VH: QVQLVESGGGLVQPGRSLRLSCAASGFTFRDYAMHWVRQAPGKGLEWVSGITWNSGLIGYADSVKGRFTISRDNAKNSLYLQMNSLRAEDTALYYCAKPVPRLRGLDVWGQGTMVTVSS
VL: DIQLTQSPSSVSASVGDRVTITCRASQGISSWLAWYQQKPGKAPKLLIYGASSLQSGVPSRFSGSGSGTDFTLTISSLQPEDFATYYCQQAFYLPWTFGGGTKVEIK
notes: as for B1
B5: anti-TIGIT antibody clone 29523 (antibody, V domains shown)
VH: EVQLVESGGGVVQPGRSLRLSCAASGFTFGSYYMHWVRQAPGKGLEWVAVIWPDGSNKLYADSVKGRFTISRDNSKNTLYLQMNSLRAEDTALYYCAKPVPKSRALDVWGQGTMVTVSS
VL: B4 VL
notes: as for B1
B6: anti-TIGIT antibody clone 29527 (antibody, V domains shown)
VH: B5 VH with E1Q, G30S, Y32S, W52G, P53A, L59Y, K65E, K102R, S103R, A105G
VL: B4 VL
notes: human IgG
B7: anti-TIGIT antibody clone 26521 (antibody, V domains shown)
VH: QVQLVQSGAEVKKPGSSVKVSCKASGGTFSSYAISWVRQAPGQGLEWMGGIIPIFGTANYAQKFQGRVTITADESTSTAYMELSSLRSEDTAVYYCARLHLGSSAYYGMDVWGQGTTVTVSS
VL: DIQMTQSPSSLSASVGDRVTITCRASQSISSYLNWYQQKPGKAPKLLIYAASSLQSGVPSRFSGSGSGTDFTLTISSLQPEDFATYYCQQRYVFPPTFGGGTKVEIK
notes: Naive parent clone, VH1-69; human IgG; Fab for 'Fab KD' columns
B8: anti-TIGIT antibody clone 29513 (antibody, V domains shown)
VH: B7 VH with S30Q, S31N, G50V, I52V, I70V, S103Q, S104K
VL: B7 VL
notes: as for B1

biological target: T1, human TIGIT on cells (Jurkat-hTIGIT, …); assay: flow cytometry on Jurkat-hTIGIT, 100 nM antibody, vs untransfected Jurkat
Experimental: (§1) Antibodies were incubated with the cells for 20 min at 4° C. in FACS buffer. […] Geometric mean fluorecence intensity was analysed using LSR BD Fortessa. Cell binding was recorded as the median florescence intensity of PE on the transfected line compared to the un-transfected line for each antibody (Table 3).

Cell binding FON (Fold Over Negative)	Binder
182 fold over negative	B1
680 fold over negative	B2
741 fold over negative	B3
166 fold over negative	B4
150 fold over negative	B5
142 fold over negative	B6
146 fold over negative	B7
156 fold over negative	B8

biological target: T1, human TIGIT on cells (Jurkat-hTIGIT, …); assay: cell-based or functional assay

luciferase induction over isotype control (fold change), Jurkat-hTIGIT + CHO-TCR-CD155 bioassay, 133 nM antibody	Binder
3.57 fold	B1
2.52 fold	B4
2.4 fold	B5
2.96 fold	B6
2.66 fold	B7
3.26 fold	B8

biological target: T2, mouse TIGIT on cells (Jurkat-mTIGIT); assay: flow cytometry on Jurkat-mTIGIT, 100 nM antibody, vs untransfected Jurkat
Experimental: as §1

Cell binding FON (Fold Over Negative)	Binder
500 fold over negative	B1
535 fold over negative	B4
502 fold over negative	B5
414 fold over negative	B6
218 fold over negative	B7
406 fold over negative	B8
